Series [1] in a line: in vivo. On the set-up: species or system mice. The conditions noted are these: for MTD: mouse, in vivo, read-out: Single Dose MTDapp.
How the values of series [2] were obtained: Toxicity as Measured by Weight Loss. The percentage weight change was determined in mice (5 mice/group) on selected days post-tumor inoculation (PTI), compared to controls, and graphed.
A short description of series [3]: Hepatobiliary excretion (bile clearance) in bile duct cannulated rats. To be noted: 2 μmol/kg i.v. bolus.
Excerpt: Comparison of Bile Clearance (% ID) of unconjugated drug, drug conjugate lacking a hydrophilic spacer linker, and conjugates described herein.
The subject of series [4] is RAW264.7 cells. The format is cell-based. To be noted: for RAW264.7 Cells Competable with xs folate: excess folic acid. The protocol: In Vitro Concentration-Dependent Cytotoxic Activity. Cells were heavily seeded in 24-well Falcon plates and allowed to form nearly confluent monolayers overnight. Thirty minutes prior to the addition of test article, spent medium was aspirated from all wells and replaced with fresh folate-free RPMI (FFRPMI). […] Treated cells were pulsed for 2 h at 37° C., rinsed 4 times with 0.5 mL of media, and then chased in 1 mL of fresh media up to 70 h. Spent media was aspirated from all wells and replaced with fresh media containing 5 μCi/mL ^3H-thymidine. Following a further 2 h 37° C. incubation, cells were washed 3 times with 0.5 mL of PBS and then treated with 0.5 mL of ice-cold 5% trichloroacetic acid per well. After 15 min, the trichloroacetic acid was aspirated and the cell material solubilized by the addition of 0.5 mL of 0.25 N sodium hydroxide for 15 min. Four hundred and fifty μL of each solubilized sample were transferred to scintillation vials containing 3 mL of Ecolume scintillation cocktail and then counted in a liquid scintillation counter. Final tabulated results were expressed as the percentage of ^3H-thymidine incorporation relative to untreated controls.
As shown in the figures herein, dose-dependent cytotoxicity was measurable, and in most cases, the IC50 values (concentration of drug conjugate required to reduce ^3H-thymidine incorporation into newly synthesized DNA by 50%) were in the low nanomolar range. […] The following table illustrated data for selected compounds against KB cells and against RAW264.7 cells

The nature of series [5]: Cell viability, XTT, 5 h pulse/72 h chase (FIG. 16). The format is cell-based. (Tetrazolium dyes change colour on reduction, which living cells bring about.)
In series [6] the test system is 20S proteosome. Nature of the series: Inhibition of LPS stimulated proteosome activity in RAW 264.7 cells (FIG. 18). The series is classed as cell-based. To be noted: 5 h pulse/24 h chase, LPS 100 ng/mL.
A short description of series [7]: Multiple dose MTD, i.v. TIW for 1 week. The conditions noted are these: mouse, in vivo, iv, Balb/c mice. The method, then:
EC0436 and Comparative Example EC0305 were also administered i.v. to Balb/c mice TIW for 1 week. The resulting MTD for the multiple dose was EC0305 ([…]) and EC0436 ([…]).

Series [8] is described as follows: Serum binding, 30K NMWL filtration, HPLC-UV. The series is classed as in vitro ADME. The conditions noted are these: 50 μM compound in serum, n=3. The method, then:
Serum Binding. Serum binding of Folate-DAVLBH conjugates containing hydrophilic spacer linkers compared to Comparative Example EC 145 lacking a hydrophilic spacer linker 50 μM compound in serum with 30K NMWL filtration and evaluation by HPLC-UV detection (n=3).

Details of series [9]: AUC (DAVLBH biliary excretion): unit not given beside the values. To be noted: rat, in vivo, iv.
Series [10] in a line: Cytotoxicity of bortezomib versus EC0501 (FIG. 14). The series is classed as cell-based.
The mark [11] stands for this setting: mice, single dose, EC0234 dose limited by solubility.
The mark [12] stands for this setting: FIG. 6B, 7B, 8B, M109 tumors, Balb/c mice, 2 μmol/kg TIW two weeks.
[13] abbreviates: FIG. 3B, M109 tumors, TIW 3 μmol/kg, 3 wks.

SMILES strings stand for the structures. Read-outs that look alike come from different tables or passages of the source. Marks after values point to notes of the source that are not given here.

Take `CC[C@]1(O)C[C@H]2CN(CCc3c([nH]c4ccccc34)[C@@](C(=O)OC)(c3cc4c(cc3OC)N(C)[C@H]3[C@@](O)(C(=O)NNC(=O)OCCSSC[C@H](NC(=O)[C@@H](NC(=O)[C@H](CC(=O)O)NC(=O)[C@@H](NC(=O)[C@H](CC(=O)O)NC(=O)[C@@H](NC(=O)CC[C@H](NC(=O)c5ccc(NCc6cnc7nc(N)[nH]c(=O)c7n6)cc5)C(=O)O)[C@@H](O)[C@H](O)[C@H](O)CO)[C@@H](O)[C@H](O)[C@H](O)CO)[C@@H](O)[C@H](O)[C@H](O)CO)C(=O)O)[C@H](O)[C@]5(CC)C=CCN6CC[C@]43[C@@H]65)C2)C1` [EC0263, Tris-Saccharo-Bis-Asp-Folate Vinblastine Conjugate]: in series [1] (setting [11]), the MTD was above 20 µmol/kg.
Turning to `CC[C@]1(O)CC2CN(CCc3c([nH]c4ccccc34)[C@@](C(=O)OC)(c3cc4c(cc3OC)N(C)C3C45CCN4CC=C[C@](CC)(C45)[C@@H](O)[C@]3(O)C(=O)NNC(=O)OCCSSC[C@H](NC(=O)C[C@H](NC(=O)C[C@H](NC(=O)CN3CCN(CCNC(=O)C[C@H](NC(=O)CC[C@H](NC(=O)c4ccc(NCc5cnc6nc(N)[nH]c(=O)c6n5)cc4)C(=O)O)C(=O)O)CC3)C(=O)O)C(=O)O)C(=O)O)C2)C1` (some centres unmarked) [EC0429], the “gross toxicity (percentage body weight change)” value in series [2] (setting [12]) is listed as “no gross toxicity was observed”. The “percent of total dose in the bile (total DAVLBH biliary excretion)” value in [3] is recorded as 8.6%.
For `CC[C@]1(O)C[C@H]2CN(CCc3c([nH]c4ccccc34)[C@@](C(=O)OC)(c3cc4c(cc3OC)N(C)[C@H]3[C@@](O)(C(=O)NNC(=O)OCCSSC[C@H](NC(=O)[C@@H](NC(=O)CC[C@H](NC(=O)c5ccc(NCc6cnc7nc(N)[nH]c(=O)c7n6)cc5)C(=O)O)[C@@H](O)[C@H](O)[C@H](O)CO)C(=O)O)[C@H](O)[C@]5(CC)C=CCN6CC[C@]43[C@@H]65)C2)C1` [EC0234, Mono-Saccharo-Folate Vinblastine Conjugate], in [1] (setting [11]), the MTD was 12 µmol/kg. In addition, the “gross toxicity (percentage body weight change)” value in series [2] (setting [13]) is “no gross toxicity was observed”.
Usually IC50 stands for the point on the concentration scale where inhibition reaches its midpoint. As for `CC(C)C[C@H](NC(=O)[C@H](Cc1ccccc1)NC(=O)c1cnc(CSSC[C@H](NC(=O)[C@H](CCC(=O)NC[C@H](O)[C@@H](O)[C@H](O)[C@H](O)CO)NC(=O)[C@H](CCC(=O)O)NC(=O)[C@H](CSSCc2cnc(C(=O)N[C@@H](Cc3ccccc3)C(=O)N[C@@H](CC(C)C)B(O)O)cn2)NC(=O)[C@H](CCC(=O)NC[C@H](O)[C@@H](O)[C@H](O)[C@H](O)CO)NC(=O)[C@H](CCC(=O)O)NC(=O)[C@H](CCC(=O)NC[C@H](O)[C@@H](O)[C@H](O)[C@H](O)CO)NC(=O)CC[C@H](NC(=O)c2ccc(NCc3cnc4nc(N)[nH]c(=O)c4n3)cc2)C(=O)O)C(=O)O)cn1)B(O)O` [EC0595], the IC50 in series [4] is 4 nM; in series [5], 13 nM; in series [6] it was around 30 nM. For the same compound, the “RAW264.7 Cells Competable with xs folate” value in [4] is given as “Yes”.
For `CC[C@]1(O)C[C@H]2CN(CCc3c([nH]c4ccccc34)[C@@](C(=O)OC)(c3cc4c(cc3OC)N(C)[C@H]3[C@@](O)(C(=O)NNC(=O)OCCSSC[C@H](NC(=O)[C@@H](NC(=O)[C@H](CC(=O)O)NC(=O)[C@@H](NC(=O)CC[C@H](NC(=O)c5ccc(NCc6cnc7nc(N)[nH]c(=O)c7n6)cc5)C(=O)O)[C@@H](O)[C@H](O)[C@H](O)CO)[C@@H](O)[C@H](O)[C@H](O)CO)C(=O)O)[C@H](O)[C@]5(CC)C=CCN6CC[C@]43[C@@H]65)C2)C1` [EC0246, Bis-Saccharo-Folate Vinblastine Conjugate], in [1] (at 20 μmol/kg single dose), the mice died result is given as “**⅓ mice died at 20 μmol/kg”. Further, the “Single Dose MTDapp” value in series [1] (setting [11]) is given as <20** μmol/kg. Besides, in series [2] (setting [13]), the “gross toxicity (percentage body weight change)” value is “no gross toxicity was observed”.
In the case of `CCCC(=O)OCN(C(=O)[C@@H](NC[C@H]1CCCCN1C)C(C)CC)[C@H](C[C@@H](OC(C)=O)c1nc(C(=O)N[C@@H](Cc2ccc(O)cc2)C[C@H](C)C(=O)NNC(=O)OCCSSC[C@H](NC(=O)[C@H](CC(=O)O)NC(=O)[C@H](CCCNC(=N)N)NC(=O)[C@H](CC(=O)O)NC(=O)CC[C@H](NC(=O)c2ccc(NCc3cnc4nc(N)[nH]c(=O)c4n3)cc2)C(=O)O)C(=O)O)cs1)C(C)C` (some centres unmarked) [EC0305, reference compound], the MTD at 1 week in series [7] is 6 µmol/kg. Moreover, the “gross toxicity (percentage body weight change)” value in series [2] (setting [12]) is “no gross toxicity was observed”.
For `CC[C@]1(O)C[C@H]2CN(CCc3c([nH]c4ccccc34)[C@@](C(=O)OC)(c3cc4c(cc3OC)N(C)[C@H]3[C@@](O)(C(=O)NNC(=O)OCCSSC[C@H](NC(=O)[C@H](CC(=O)O)NC(=O)[C@H](CC(=O)O)NC(=O)[C@H](CCCNC(=N)N)NC(=O)[C@H](CC(=O)O)NC(=O)CC[C@H](NC(=O)c5ccc(NCc6cnc7nc(N)[nH]c(=O)c7n6)cc5)C(=O)O)C(=O)O)[C@H](O)[C@]5(CC)C=CCN6CC[C@]43[C@@H]65)C2)C1` [EC145, reference compound], the fraction unbound at 50 μM in series [8] (human, read-out: Human Serum (% Bound) (converted)) is 0.457. In addition, the fraction unbound at 50 μM in series [8] (mouse, read-out: Mouse Serum (% Bound) (converted)) was 0.327. In addition, the “gross toxicity (percentage body weight change)” value in [2] (mouse, in vivo) is given as “no gross toxicity was observed”. In addition, in [9], the “AUC (DAVLBH biliary excretion)” value is 1092 and the “percent of total dose in the bile (total DAVLBH biliary excretion)” value is on record as 8.7%.
For `CC(C)C[C@H](NC(=O)[C@H](Cc1ccccc1)NC(=O)c1cnccn1)B(O)O` [bortezomib], the IC50 in [10] is 20 nM.
`CC(C)C[C@H](NC(=O)[C@H](Cc1ccccc1)NC(=O)c1cnc(CSSC[C@H](NC(=O)[C@H](CCC(=O)NC[C@H](O)[C@@H](O)[C@H](O)[C@H](O)CO)NC(=O)[C@H](CCC(=O)O)NC(=O)[C@H](CCC(=O)NC[C@H](O)[C@@H](O)[C@H](O)[C@H](O)CO)NC(=O)[C@H](CCC(=O)O)NC(=O)[C@H](CCC(=O)NC[C@H](O)[C@@H](O)[C@H](O)[C@H](O)CO)NC(=O)CC[C@H](NC(=O)c2ccc(NCc3cnc4nc(N)[nH]c(=O)c4n3)cc2)C(=O)O)C(=O)O)cn1)B(O)O` [EC0525]: the “RAW264.7 Cells Competable with xs folate” value in [4] is “Yes”. Also, the IC50 in series [5] was 46 nM; in series [6] it was around 30 nM.
